Blank lines part the entries; values can stand above or below the binder they belong to.
Experiments:
[1] = target: T1, Recombinant Human DLL4 (R&D Systems Cat#1506-D4/CF) (human, UniProt Q9NR61 27-524); test: MSD multispot ECL, antigen spotted, Fab 0.6 nM; blank spot 226
T1 construct: Bought recombinant protein; also called rHuman DLL4; delta-like protein 4

[2] = target: T2, rHuman ErbB2/Fc Chimera, CF (R&D Systems Cat#1129-ER) (human, UniProt P04626 23-652); test: as above
T2 construct: Bought reagent; also called human epidermal growth factor 2 receptor

[3] = target: T3, rHuman EGF R/Fc Chimera, CF (R&D Systems Cat#344-ER) (human, UniProt P00533 25-645); test: as above
T3 construct: Bought reagent; also called epidermal growth factor receptor

[4] = target: T4, rHuman HGF R/c-MET/Fc Chimera, CF (R&D Systems Cat#358-MT/CF) (human, UniProt P08581 25-932); test: as above
T4 construct: Bought reagent; also called HGF R/Fc; hepatocyte growth factor receptor

[5] = target: T5, rHuman IGF-1 sR, (IGF-1 sR), CF (R&D Systems Cat#391-GR) (human, UniProt P08069 31-932); test: as above
T5 construct: Bought soluble receptor; also called insulin-like growth factor-1 soluble receptor

[6] = target: T6, rHuman Erythropoietin R/Fc Chimera, CF (R&D Systems Cat#963-ER) (human, UniProt P19235 25-250); test: as above
T6 construct: Bought reagent; also called EPO R/Fc; Epo R
T6 sequence (looked up): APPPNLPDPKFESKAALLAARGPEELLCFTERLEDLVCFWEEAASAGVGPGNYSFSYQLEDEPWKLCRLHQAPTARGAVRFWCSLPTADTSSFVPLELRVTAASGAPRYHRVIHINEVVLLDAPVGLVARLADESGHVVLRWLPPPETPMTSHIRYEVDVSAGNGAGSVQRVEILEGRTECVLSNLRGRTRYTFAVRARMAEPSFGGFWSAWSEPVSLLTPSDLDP

[7] = target: T2, rHuman ErbB2/Fc Chimera, CF (R&D …); test: MSD multispot ECL, antigen spotted, Fab 148.9 nM; blank spot 218
[8] = target: T3, rHuman EGF R/Fc Chimera, CF (R&D …); test: as above
[9] = target: T4, rHuman HGF R/c-MET/Fc Chimera, CF (R&D …); test: as above
[10] = target: T7, rHuman Notch-1/Fc Chimera, CF (R&D Systems Cat#3647-TK) (human, UniProt P46531 19-526); test: as above
T7 construct: Bought reagent

[11] = target: T8, rHuman CD44/Fc Chimera, CF (R&D Systems Cat#3660-CD) (human, UniProt P16070 21-220); test: as above
T8 construct: Bought reagent

[12] = target: T9, rHuman Erythropoietin R/Fc Chimera, CF (R&D Systems Cat#963-ER) (human, UniProt P19235 25-250); test: Multispot ECL (MSD) titration; antigen spotted on plate; Fab 98.1 nM; blank spot 210
T9 construct: Bought Fc chimera; also called EPO R/Fc; EPO R; Fc part of the bought chimera not given
T9 sequence (looked up): T6 sequence (looked up)

[13] = target: T10, Recombinant Human DLL4 (R&D Systems Cat#1506-D4/CF) (human, UniProt Q9NR61 27-524); test: as above
T10 construct: Bought recombinant protein; also called delta-like protein 4; rHuman DLL4

[14] = target: T11, rHuman ErbB2/Fc Chimera, CF (R&D Systems Cat#1129-ER) (human, UniProt P04626 23-652); test: as above
T11 construct: Bought Fc chimera; also called human epidermal growth factor 2 receptor; Fc part of the bought chimera not given

[15] = target: T12, rHuman HGF R/c-MET/Fc Chimera, CF (R&D Systems Cat#358-MT/CF) (human, UniProt P08581 25-932); test: as above
T12 construct: Bought Fc chimera; also called HGF R/Fc; hepatocyte growth factor receptor; Fc part of the bought chimera not given

[16] = target: T13, rHuman Notch-1/Fc Chimera, CF (R&D Systems Cat#3647-TK) (human, UniProt P46531 19-526); test: as above
T13 construct: Bought Fc chimera; Fc part of the bought chimera not given

[17] = target: T14, rHuman CD44/Fc Chimera, CF (R&D Systems Cat#3660-CD) (human, UniProt P16070 21-220); test: as above
T14 construct: Bought Fc chimera; Fc part of the bought chimera not given

[18] = target: T15, rHuman IGF-1 sR (IGF-1 sR), CF (R&D Systems Cat#391-GR) (human, UniProt P08069 31-932); test: as above
T15 construct: Bought soluble receptor; also called insulin-like growth factor-1 soluble receptor

[19] = target: T16, rHuman P-Cadherin/Fc Chimera, CF (R&D Systems Cat#861-PC) (human, UniProt P22223 108-654); test: as above
T16 construct: Bought Fc chimera; Fc part of the bought chimera not given

ECL signal [1]: 508 ECL signal
ECL signal [2]: 215 ECL signal
ECL signal [3]: 309 ECL signal
ECL signal [4]: 256 ECL signal
ECL signal [5]: 313 ECL signal
ECL signal [6]: 337 ECL signal
ECL signal [7]: 247 ECL signal
ECL signal [8]: 290 ECL signal
ECL signal [9]: 205 ECL signal
ECL signal [10]: 375 ECL signal
ECL signal [11]: 348 ECL signal
B1: Fab VH1-46_IGHD6-6*01_IGHJ1*01 & L6_IGKJ1*01 (Fab, V domains shown)
VH: QVQLVQSGAEVKKPGASVKVSCKASGYTFTSYYMHWVRQAPGQGLEWMGIINPSGGSTSYAQKFQGRVTMTRDTSTSTVYMELSSLRSEDTAVYYCAREEYSSSSAEYFQHWGQGTLVTVSS
VL: not shown
notes: Only variable domains are tied to the molecule; Tested as a Fab made in E. coli: heavy chain from Plasmid A (CH1 constant region, His6 and Flag tags), kappa light chain from Plasmid C (kappa CL); also called parent Hit Fab against DLL4; VH1-46_IGHD6-6*01_IGHJ1*01 & L6_IGKJ1*01 (parental)

ECL signal [12]: 5630
ECL signal [13]: 402
ECL signal [14]: 247
ECL signal [15]: 335
ECL signal [16]: 313
ECL signal [17]: 265
ECL signal [18]: 309
ECL signal [19]: 347
B2: Fab VH1-46_IGHD3-10*01_IGHJ4*01 & O1_IGKJ1*01 (Fab, V domains shown)
VH: QVQLVQSGAEVKKPGASVKVSCKASGYTFTSYYMHWVRQAPGQGLEWMGIINPSGGSTSYAQKFQGRVTMTRDTSTSTVYMELSSLRSEDTAVYYCAREYYYGSGSYYNDYFDYWGQGTLVTVSS
VL: DIVMTQTPLSLPVTPGEPASISCRSSQSLLDSDDGNTYLDWYLQKPGQSPQLLIYTLSYRASGVPDRFSGSGSGTDFTLKISRVEAEDVGVYYCMQRIEFPSWTFGQGTKVEIKR
notes: Germline library Fab expressed in E. coli; VH was cloned into Plasmid A (CH1 constant region, His6 and Flag tags); The kappa VL was cloned into Plasmid C (kappa CL)
